From article PMC6488192 (2019) come the findings set out here.

B1: RNA Editing Helicase 2 (REH2) wild type with TAP tag [T. brucei] / REH2-Associated Factor 1 (^H2F1), endogenous [T. brucei (endogenous in Lister 427 29-13 procyclic cells)] (parent complex)
chain 1: FQTQEITPGEVSLVEATDESDRAFGETRKEDFSFDGSSEFPECFKDTKHVDTFSRARVVSFIKRFSQGAVTSSSEVFEGREIVNDNGTPLYHSRVRLPFRSHTGELWAHGVACNSKDAELLAAMHAEHIIDEFGYHIYTLPSMQRKHAEAARKAGRWAPLPDELERTQSPVRVPLPLRRIVDRDETEGGKWLLIDMRPNHYISPSHTLLSPCLFDTTAVHRIKSFLDEHKLSFAQLCTSVEEPGEGGGQSWYVATVSLPPELSTFSEIKAQGKALNREAAVTLACMHAELVLDAHSICLYPSDSTKQKQHALAAWSYGRPAPLPGEDQKNPSHVVCPLPLKQLAVRREDRISCISYEEDIIRRHRALTDQTCEFIETPTLDSSAVEQLKQFLQRENVPRTDPFLVEEVNGYYKATVVLPLPDLYGIRGGVGIAMNATDARVLAAMHAIDVLNILGFHLMDGSTARAEWIAARRARGESVPADTRDPNVLSPSGRRRVATGNSSTQTPSSSTNARSVAAAPDVGTSDPTAPQNTKRRVAKRARVADAQPTEEKDAANSDSDEATSYLKMRETVSKELWNLEPDSPDGYIMVSPTDPETRTQFEQALYSPRQVDLGSKSRIKNYLASVGRRIEEVFFVQRIEAEDNGGQAICRCAVNLPVPRRFGDRIALGEAVDPKDAENLAAMHAELILDTLGIPIYTDSALQRLHVRLCAKCGRNAPVEYSESVAAATASPPPLRREVVGSIHWENKSKRRRAAISVQKGGGPANSQETTSALREDEEPLIAPKERREYTFVPEKDLDLVSRARVHYYLRRNGIAKLEPEYRMELRGLGNVLHIAELTLPLPDVYGKRVAHGSALTKRDAEILCWMHAEQILDAVGLCLFDNLPMLQRRHVECVKRLGRWAPLVSENATKPPHTPTPLPLTLGTTQEKPQYPTPPTNVRQDWEQYAQECQRYIEINVMREHNIFYEMGKTPRTGDETYDAALAEVESMPIDPDAKTVLQRYCNVANVNYPTFWKSRTVGPISCRVCLTTIEVPGHEYLRASGVAWNKEASQRQAAMHALALLRRVEPDFAEFEKQIKAEVVDKVNLVDPAAVLDEEAPVLRRTARVSKKSLGNWDPVSKDFSHEGKVRIIELFTVCFGLQPPLVRHLNRRSGSFVQHFTVVEVTDEDGKTWVGTGRDAGPRFNEPAAFDDLFSKLSRGVQGFQALMDLIRAHPHLDPEHIANVSLTDSQKERILKAVDGLPMVEEEDVAHPEQWADADSDRGIGIMALIAMDASQRAQESQELEAKLQAKLTNEEYQTRYASQRQRLRIYEKRDEILRAISSNQIVIICGTTGCGKTTQVPQYILDDMTEKGMGGDCSIVITQPRRLSAVSIARRVAAERLESIGETCGYSIRLDAKPGRNINFCTSGVLLRLLHSAPLLNGINYLIIDEIHERDINSDFLLILLRQLLHRRKDLHVILMSATLQADQFGKYFGNAPIINVEGYVHAVEEMYLEDLVPIATERNVMTPLLKEAAAALERNGAADGFCPTVVPPTAKYGFLEATADIDYMTIQIAIDHAVRSLDLTDSSILVFLPGWDEINRAKEILERNAKFHIICLHSSVGAEEQMRCFLPAPEGKIKLILSTNIAESGVTIDDVAAVIDVGRGKEKSYVMRKGTTSVGRNEMGSMSQLVTVYASRANCVQRRGRVGRTRPGMCIRLYSKKHFQSLHDFQTPEMLRTHLDSLCLQILALDLGDPADFLQQALEPPSSDHIEAAMKRLHELGATTSTRQLTPLGLRLSRLPVAPKVGKMVIMGAILRCLDSALTIAGVSDTDVFISTREHREAVRLHKEDLSYGTQSDVIASVNAFNFWVTSHYAKTPAEVVYDLQERMLSVPQLLTVSKYKQQFFEIVAGSGFIHMKQNYKDAKNKDRADIFVDQSEYSADSLNVGLVKCVVASGLFPNVVMNRGKRLMRNKLANRLDPSSASVVHRTSQENIGQPYFVYDELVKSSESERLLVRDLTNVSLWTILLMGTSSMPVTYRDDLNLAVVDEWIMFRATFGTLELIRKFKRALNVCLGRKFMNPNDEENNAKLEELRCIIKELVCTPFKPNDLAEKPWEEKGVIIEPCTEPKGGSSEAEKTHVNSSHTPTTSAEAGGDS
chain 2: CHHPLRIPSVQLAAPRSHTHEDIAYASCPACSRVVHMCDMLTHLITAHRELDQTHCRKMCTERLALYERVIGVPLKKSELTSSGRRVLDFLPTVLPTGYMCNWCDRRSDVYATRDKFLKHVADVHTDIDLEEVEPHVPLPPRGVVVEKSNGDGGPQPTRRLNGVVAVAEKSEPINAVPRILGISLPRGVDRPLKATAQFSDTEFPCELCNRTFNSEIDLLQHLETRHPDGTAEGPAGVDSAAIADVAQFSAKEATTGGDQRVHVICDLCVSSSKVYKMPSALFSHIRFKHPNEDAAFHVERLIREQKTVSSFVCTVCQKAFASAAALDGHFNSKHAEQGEAQNVVGRVTANNCWWCHDCEKGFSSAKGLHGHMQNKHGLSSQTHPCPACKRVFADIYSLEEHLSLQHKTIRLSDIGLLTHVKCSTCERFFLSHEDLHRHAVKHHKKDPRAPAQPFEAPTSASHVAASTSAAVPSEVEATASPQGPRKVKKRKKTTEVSEVTS

The variants in this experiment derive from B1. Put plainly: IgG pulldown of TAP-tagged REH2, western blot quantification; parent: 1; read off a plot.
For chain 1 R1949A, the ratio to parent is about 1.1. The same measure for chain 1 K1048A, chain 1 A1056D: about 1; for chain 1 R1993A: about 0.92. The same measure for chain 1 H1968E: about 0.97.
